Patent US20240376207A1 (JIANGSU HENGRUI PHARMACEUTICALS, published 2024)

T1: human PVRIG expressed on cells (human, UniProt Q6DKI7 41-326)
T1 sequence (looked up): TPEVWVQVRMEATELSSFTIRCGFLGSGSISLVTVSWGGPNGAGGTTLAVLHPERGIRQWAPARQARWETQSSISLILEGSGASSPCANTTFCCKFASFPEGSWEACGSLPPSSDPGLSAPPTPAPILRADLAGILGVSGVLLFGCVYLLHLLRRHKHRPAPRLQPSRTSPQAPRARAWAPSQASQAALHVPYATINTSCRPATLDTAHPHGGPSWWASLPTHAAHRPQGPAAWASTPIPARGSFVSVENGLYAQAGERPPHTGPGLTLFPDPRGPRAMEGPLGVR

T2: cynomolgus monkey PVRIG expressed on cells (cynomolgus monkey, UniProt A0A2K5WVV8 1-322)
T2 construct: whole, on cells; also called Monkey PVRIG FACS; cells overexpressing cynomolgus monkey PVRIG
T2 sequence: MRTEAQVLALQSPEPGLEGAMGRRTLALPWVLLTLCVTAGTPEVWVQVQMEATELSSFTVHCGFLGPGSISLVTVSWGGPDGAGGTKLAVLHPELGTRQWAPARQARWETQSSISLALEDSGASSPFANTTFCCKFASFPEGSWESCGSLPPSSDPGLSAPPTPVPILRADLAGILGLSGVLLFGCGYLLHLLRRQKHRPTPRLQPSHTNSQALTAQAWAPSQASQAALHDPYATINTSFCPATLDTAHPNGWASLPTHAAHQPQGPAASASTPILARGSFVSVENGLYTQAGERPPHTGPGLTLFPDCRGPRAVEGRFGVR

T3: his-tagged human PVRIG (h-PVRIG-his) recombinant protein (human, UniProt Q6DKI7 41-171, limits assumed)
T3 construct: bought from Acrobiosystems; also called Human PVRIG-his; human PVRIG recombinant protein; not shown: his tag
T3 sequence (looked up): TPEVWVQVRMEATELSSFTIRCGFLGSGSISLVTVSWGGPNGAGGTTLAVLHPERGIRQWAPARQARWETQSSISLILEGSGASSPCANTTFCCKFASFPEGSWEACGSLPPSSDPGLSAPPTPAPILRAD

T4: human TIGIT recombinant protein (human, UniProt Q495A1 22-141, limits assumed)
T4 construct: construct not described; also called human TIGT recombinant protein
T4 sequence (looked up): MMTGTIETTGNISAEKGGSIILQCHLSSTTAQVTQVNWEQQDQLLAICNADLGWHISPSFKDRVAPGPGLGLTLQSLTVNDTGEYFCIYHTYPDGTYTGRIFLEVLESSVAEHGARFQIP

T5: human TIGIT expressed on cells (human, UniProt Q495A1 22-244)
T5 construct: whole, on cells; also called cells overexpressing human TIGIT
T5 sequence (looked up): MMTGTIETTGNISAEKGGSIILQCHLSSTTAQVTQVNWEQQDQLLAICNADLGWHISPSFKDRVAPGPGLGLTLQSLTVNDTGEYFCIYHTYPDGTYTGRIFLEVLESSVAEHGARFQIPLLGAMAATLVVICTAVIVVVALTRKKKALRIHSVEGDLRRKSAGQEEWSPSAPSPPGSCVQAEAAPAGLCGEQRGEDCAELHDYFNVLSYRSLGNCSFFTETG


Legend:
[1] = target: T1, human PVRIG expressed on cells; test: cell-based or functional assay
[2] = target: T1, human PVRIG expressed on cells; test: cell-based or functional assay; remark: listed apart in the source
[3] = target: T1, human PVRIG expressed on cells; test: FACS, HEK293 cells overexpressing target
Method: (§1) The expression plasmid carrying human or cynomolgus monkey PVRIG gene sequence was transfected into HEK293 cells, and the over-expressing stable transfection monoclonal cell strain was obtained by antibiotic screening and infinite dilution. Overexpressing cells were seeded into a 96-well plate at 2×10⁵ cells/per well. The cells were centrifuged at 300 g for 5 min, the supernatant was then removed, 100 μL of the test antibody was added, and the mixture was incubated at 4° C. for 1 h. The mixture was centrifuged, the supernatant was removed, the plate was washed 3 times with 200 μL of wash buffer (PBS+2% FBS), and then 100 μL of an anti-human IgG secondary antibody (Invitrogen, A-11013) labeled with Alexa Fluor 488 diluted at 1:500 was added. The mixture was incubated at 4° C. for 1 h. The plate was centrifuged, and the supernatant was removed. The plate was washed 3 times with 200 μL of wash buffer (PBS+2% FBS). The cells were resuspended in 100 μL of PBS and tested on a flow cytometer (BD FACS Calibur or BD FACS Canto_II).
(§2) Binding of the humanized anti-PVRIG antibodies to human or cynomolgus monkey PVRIG was detected by using a flow cytometer according to the method of Example 5.

[4] = target: T2, cynomolgus monkey PVRIG expressed on …; test: FACS, HEK293 cells overexpressing target
Method: as §1, §2

[5] = target: T3, his-tagged human PVRIG (h-PVRIG-his) …; test: BLI (Fortebio), antibody on Protein A sensor, 1:1 fit
Method: A Protein A biosensor (Fortebio, #18-5010) was immersed in 200 μL of KB buffer (PBS, pH 7.4, 0.02% tween-20, 0.1% BSA) for 60 s for the wetting treatment. Then, the anti-PVRIG antibody was diluted to 10 μg/mL with the KB buffer, and the sensor was immersed in 200 μL of the solution until the reading was 1.2 nm. The sensor was immersed in the KB buffer for 100 s to elute excess antibody. The his-tagged human PVRIG was diluted in a 2-fold gradient to 64 nM-4 nM with the KB buffer. The sensor was immersed in the solution for 300 s for binding. The sensor was immersed in the KB buffer for 600 s for dissociation. The data were fitted in a dynamic 1:1 binding mode.
The affinity of the humanized anti-PVRIG antibodies for human PVRIG was detected according to the method of Example 7. All the antibodies listed in the Table have high affinity for human PVRIG.

[6] = target: T4, human TIGIT recombinant protein; test: ELISA, coated antigen
Method: A human, cynomolgus monkey, or mouse PVRIG protein (at a concentration of 1 μg/mL) was coated on a 96-well microplate at 100 μL per well, and incubated overnight at 4° C. The plate was washed three times with wash buffer at 250 μL per well. For each wash, the plate was shaken for 10 s to ensure adequate cleaning. A blocking solution (PBS+0.05% Tween20+1% BSA) was added at 300 μL/well, and the plate was incubated at room temperature for 1 h. The plate was washed three times with wash buffer at 250 μL per well. For each wash, the plate was shaken for 10 s to ensure adequate cleaning. Dilutions of the test anti-PVRIG antibodies were added at 100 μL/well. The plate was incubated at 37° C. for 1 h. The plate was washed three times with wash buffer at 250 μL per well. The […] anti-human IgG secondary antibody (Sigma, A8667) was added at 100 μL per well. The plate was incubated at 37° C. for 1 h. The plate was washed three times with wash buffer at 250 μL per well. TMB was added at 100 μL/well, and the plate was incubated in the dark for 15 min. 0.16 M sulfuric acid was added at 50 μL/well. The OD values at 450 nm were read by using a Thermo MultiSkanFc microplate reader, and the EC₅₀ values of the binding of the anti-PVRIG antibodies to PVRIG were calculated.
(§3) The experiments were carried out according to the methods of Example 4, Example 5 and Example 6 (corresponding receptors and ligands were replaced with human TIGIT and human PVR), and the results are shown in Table 27.

[7] = target: T5, human TIGIT expressed on cells; test: FACS, cells overexpressing target
Method: as §1, §3

[8] = target: T4, human TIGIT recombinant protein; test: competition ELISA; human TIGIT, competitor human PVR
Method: The h-PVRIG-mIgG2a Fc protein (at a concentration of 1 μg/mL) was coated on the 96-well microplate at 100 μL per well, and incubated overnight at 4° C. The plate was washed three times with wash buffer at 250 μL per well. For each wash, the plate was shaken for 10 s to ensure adequate cleaning. A blocking solution was added at 300 μL/well, and the plate was incubated at room temperature for 1 h. The plate was washed three times with wash buffer at 250 μL per well. For each wash, the plate was shaken for 10 s to ensure adequate cleaning. 50 μL of diluted test anti-PVRIG antibody and 50 μL of his-tagged ligand PVRL2 were added to each well, and the plate was incubated at 37° C. for 1 h. The plate was washed three times with wash buffer at 250 μL per well. The HRP-labeled anti-his-tagged secondary antibody (Genscrpit) diluted at 1:2000 was added at 100 μL per well. The plate was incubated at 37° C. for 1 h. The plate was washed three times with wash buffer at 250 μL per well. TMB was added at 100 μL/well, and the plate was incubated in the dark for 15 min. 0.16 M sulfuric acid was added at 50 μL/well. OD values at 450 nm were measured using a Thermo MμtLtiSkanFc microplate reader, and the IC₅₀ values of the anti-PVRIG antibodies blocking the binding of PVRIG to PVRL2 were calculated.
as §3

Binder	PVRIG reporter gene cell activity EC50 [1] [nM]	NK92 killing of K562, killing activity (%), 4 nM antibody [2] [%]	NK92 killing of K562, killing activity (%), 20 nM antibody [2] [%]	NK92 killing of K562, killing activity (%), 100 nM antibody [2] [%]	EC50 [3] [nM]	EC50 [4] [nM]	Kd [5] [nM]	koff [5] [s⁻¹]	kon [5] [M⁻¹ s⁻¹]	EC50 [6] [nM]	EC50 [7] [nM]	IC50 [8] [nM]
humanized anti-PVRIG antibody 151H7 (antibody, human IgG4 S228P, F234A L235A, V domains shown) VH: HVQLVESGGGLVQPGGSLRLSCVASASGFTYRPYCMAWFRQAPGKEREAVAGIDIFGGTTYADSVKGRFTASRDNAGFSLYLQMNSLRAEDTAVYYCAAGDSPDGRCPPLGQGLNYWGQGTMVTVSS	0.038	16.9	21	18.4	0.002	0.467	1.2	0.000188	157000	–	–	–
anti-PVRIG/TIGIT bispecific antibody 1708-151-1 (bispecific antibody, human IgG4 S228P, kappa) heavy: not shown light: DIQMTQSPSSLSASVGDRVTITCRASENIYSYLAWYQQKPGKSPKLLIYNARTLAEGVPSRFSGSGSGTDFTLTISSLQPEDFATYYCQYHSGSPLPFGGGTKVEIKRTVAAPSVFIFPPSDEQLKSGTASVVCLLNNFYPREAKVQWKVDNALQSGNSQESVTEQDSKDSTYSLSSTLTLSKADYEKHKVYACEVTHQGLSSPVTKSFNRGEC	–	–	–	–	–	–	–	–	–	0.101	1.51	0.96
anti-PVRIG/TIGIT bispecific antibody 1708-151-2 (bispecific antibody, human IgG4 S228P, kappa) heavy: not shown light: DIQMTQSPSSLSASVGDRVTITCRASENIYSYLAWYQQKPGKSPKLLIYNARTLAEGVPSRFSGSGSGTDFTLTISSLQPEDFATYYCQYHSGSPLPFGGGTKVEIKRTVAAPSVFIFPPSDEQLKSGTASVVCLLNNFYPREAKVQWKVDNALQSGNSQESVTEQDSKDSTYSLSSTLTLSKADYEKHKVYACEVTHQGLSSPVTKSFNRGEC	–	–	–	–	–	–	–	–	–	0.09	1.27	1.04
